According to patent US20050002959A1 (GlaxoSmithKline, published 2005):
Values joined by “and” are separate entries in the source; they are usually repeats but may differ in a detail not shown here. Equal entries are not always repeated.

B1: recombinant human IL4 (non-glycosylated, produced in E. coli) (ligand, UniProt P05112 25-153, looked up)
chain: HKCDITLQEIIKTLNSLTEQKTLCTELTVTDIFAASKNTTEKETFCRAATVLRQFYSHHEKDTRCLGATAQQFHRHKQLIRFLKRLDRNLWGLAGLNSCPVKEANQSTLENFLERLKTIMREKYSKCSS
notes: also called hIL4; hIL-4

Columns and labels:
[1] = molecular target: B1; test: cell-based or functional assay
[2] = molecular target: B1; test: titration microcalorimetry, calculated for pH 7.4, 150 mM NaCl, 25° C. by the Gibbs-Helmholz equation
Description: (§1) The affinity and detailed thermodynamics of IL4 binding to humanized MAb 3B9 and murine 3B9 (Example 1) were determined by titration microcalorimetry.

[3] = molecular target: B1; test: titration microcalorimetry, pH 7.4, 150 mM NaCl, 25° C.
Description: as §1

[4] = molecular target: T1, IL4 receptor on the gibbon cell line MLA [ATCC TIB201] (gibbon); test: displacement of 125I-rhIL4 (83 pM) from gibbon MLA cells
T1 construct: whole, on cells; also called its receptor
Description: The ability of 3B9 to inhibit the binding of IL4 to its receptor was studied using ¹²⁵I-rhIL4 binding to the gibbon cell line, MLA [ATCC TIB201], that bears approximately 6000 receptors per cell. MLA cells were incubated with […] for 30 minutes at 37° C. Uptake of radioactivity was determined in a gamma counter after separation of cell bound ¹²⁵I-IL4 by centrifugation through an oil-gradient. Non-specific binding was determined by incubating in the presence of a 100-fold molar excess of unlabelled IL4 [Park et al, J. Exp. Med., 166:476-488 (1987)]. The IC₅₀ value for unlabeled IL4 in this assay was 22 pM when the amount of (added) IL4 was 83 pM. For intact murine (IgG) 3B9 the IC₅₀ was 63 pM, and 93 pM for the Fab fragment.

Binder | IC50, B cell proliferation [1] [nM] | IC50, IgE synthesis [1] | IC50, T cell proliferation [1] | Kd [2] [nM] | IC50, CD23 induction [1] [nM] | -TΔS [3] [kcal/mol IL4] | ΔG [3] [kcal/mol IL4] | ΔH [3] [kcal/mol IL4] | IC50 [4] [nM]
humanized 3B9 (IgG4 variant) (antibody, V domains shown) VH: QVTLRESGPALVKPTQTLTLTCTFSGFSLSTSGMGVSWIRQPPGKGLEWLAHIYWDDDKRYNPSLKSRLTISKDTSRNQVVLTMTNMDPVDTATYYCARRETVFYWYFDVWGRGTPVTVSS VL: IVMTQSPDSLAVSLGERATINCKASQSVDYDGDSYMNWYQQKPGQPPKLLIYAASNLESGVPDRFSGSGSGTDFTLTISSLQAEDVAVYYCQQSNEDPPRFGGGTKVEIKR | 0.079 | 0.406 nM | 0.04 nM | – | – | – | – | – | –
humanized 3B9 (IgG1) (antibody, V domains shown, Human IgG1 heavy constant region and human kappa constant region; also called humanized MAb 3B9; 3B9 (Humanized)) VH: QVTLRESGPALVKPTQTLTLTCTFSGFSLSTSGMGVSWIRQPPGKGLEWLAHIYWDDDKRYNPSLKSRLTISKDTSRNQVVLTMTNMDPVDTATYYCARRETVFYWYFDVWGRGTPVTVSS VL: IVMTQSPDSLAVSLGERATINCKASQSVDYDGDSYMNWYQQKPGQPPKLLIYAASNLESGVPDRFSGSGSGTDFTLTISSLQAEDVAVYYCQQSNEDPPRFGGGTKVEIKR | – | 0.054 nM and 0.035 nM and 0.083 nM | 0.044 nM and 0.03 nM and 0.056 nM | 0.011 | 0.333 | 8.2 | -13.6 | -21.8 | –
B1 | – | – | – | – | – | – | – | – | 0.022
